Assay results from doi:10.1101/589515 (bioRxiv, 2019).

Biological target: the molecule itself
Experiment: cryo-EM structure

B1: human polycystin-2 (PC2), truncated construct Pro185 - Asp723 (domain or fragment, UniProt Q13563 185-723, looked up)
chain: PRVAWAERLVRGLRGLWGTRLMEESSTNREKYLKSVLRELVTYLLFLIVLCILTYGMMSSNVYYYTRMMSQLFLDTPVSKTEKTNFKTLSSMEDFWKFTEGSLLDGLYWKMQPSNQTEADNRSFIFYENLLLGVPRIRQLRVRNGSCSIPQDLRDEIKECYDVYSVSSEDRAPFGPRNGTAWIYTSEKDLNGSSHWGIIATYSGAGYYLDLSRTREETAAQVASLKKNVWLDRGTRATFIDFSVYNANINLFCVVRLLVEFPATGGVIPSWQFQPLKLIRYVTTFDFFLAACEIIFCFFIFYYVVEEILEIRIHKLHYFRSFWNCLDVVIVVLSVVAIGINIYRTSNVEVLLQFLEDQNTFPNFEHLAYWQIQFNNIAAVTVFFVWIKLFKFINFNRTMSQLSTTMSRCAKDLFGFAIMFFIIFLAYAQLAYLVFGTQVDDFSTFQECIFTQFRIILGDINFAEIEEANRVLGPIYFTTFVFFMFFILLNMFLAIINDTYSEVKSDLAQQKAEMELSDLIRKGYHKALVKLKLKKNTVD
  stoichiometry N: 4
